This note sets out measurements from patent US6399352B1, “Plant porphobilinogen synthase and fusion protein thereof” (Paradigm Genetics, Inc., priority 1999, dated 2002).

The data set is described as follows: Enzyme activity of plant thioredoxin-porphobilinogen synthase: PBG formation from ALA (EC 4.2.1.24). The note with it: 37° C., 1 hour, Tricine buffer pH 7.9, 2.5 mM ALA, 5 mM MgCl2, 1.25 μg purified recombinant protein; Ehrlich's reagent, OD 555 nm. It is filed as biochemical. The protocol:
Enzyme activity is tested in accordance with EC 4.2.1.24 using the following assay principle: [drawing 1] The enzyme activity of plant thioredoxin-porphobilinogen synthase (T-PPS) is measured as porphobilinogen (PBG) formation from δ-aminolevulinic acid (Aminolevulinate or ALA). A typical reaction is as follows: the reaction is carried out at 37° C. for 1 hour in Tricine buffer pH 7.9 or other suitable biochemical buffer, 2.5 mM ALA, 5 mM MgCl2 and 1.25 μg of purified recombinant protein from E. coli expression system in a final assay volume of 100 μl. PBG is quantified spectrophotometrically after reaction with the 100 μl Ehrlich's reagent solution. Optical density is determined after 60 minutes at 555 nm.

With “plant thioredoxin-porphobilinogen synthase: fusion protein of thioredoxin and tomato plant porphobilinogen synthase, expressed in E. coli (SEQ ID NO: 2)”, the “enzyme activity (conversion of ALA to PBG)” value is reported as “active”.
